Results on seven molecules are retold here after patent US20130295102A1 (Novartis, published 2013).

The target of experiment [1] is T1, Human Factor P (human, UniProt P27918 29-469).
T1 construct: Bought protein (Complement Technology cat# A139) in SET and Biacore; Factor P of human serum in the functional assays; also called FP; human FP
Put plainly: SET, solution equilibrium titration. The method, then: (§1) In SET, a constant amount of antibody is incubated with different concentrations of antigen until equilibrium is reached. The concentration of free antibody in the equilibrated solution is determined by applying the solution on an antigen coated MSD™ plate (Meso Scale Discovery™) followed by incubation with an ECL-labeled secondary antibody and measurement of signal intensity. At low antigen concentrations, a strong signal is achieved (high concentration of free antibody which binds to the antigen on the plate) whereas for high antigen concentration, the antibody is completely antigen-captured, resulting in a low signal. If a sufficient number of antigen concentrations in a matching range are available, the titration curve allows for a reasonable determination of the affinity, using the appropriate fit model. […] The constant concentration of antibody applied in the assay should be in the range of, or below, the KD (Table 4).
(§2) Human Factor P (Complement Technology cat#: A139) and Cyno Factor P purified from cyno serum (protocol adapted from Nakano, et al., (1986) J Immunol Methods 90:77-83) were coated on standard binding MSD plates (Meso-Scale Discovery, 384-well: MSD cat#: L21XA, 96-well: MSD cat#: L15XA) at 0.2-0.3 μg/ml in 25 μl PBS and incubated overnight at 4° C. Factor P inhibitors were diluted to a fixed concentration (1 pM or 10 pM) in incubation buffer (PBS with 2% BSA (Sigma cat#: A4503) and 1% Tween20 and 1% Triton-X (Sigma cat#: 234729)), and added to a serial dilution of Factor P (human or cyno) in incubation buffer. Samples were allowed to reach equilibrium by incubation at RT overnight. Plates were washed 3× in wash buffer (PBS with 0.05% Tween20), and blocked with 100 μl incubation buffer at RT for 2 hrs. Plates were washed 3× in wash buffer. Sample containing Factor P inhibitors and Factor P titration were added to the plate (25 μl), and incubated at RT for 15 min. Plates were washed 3× in wash buffer. 25 μl detection antibody was added (Anti-Human (Goat) Sulfo-TAG, 1:1000 in incubation buffer, MSD cat#: R32AJ-1), and incubated at RT for 60 min. Plates were washed 3× in wash buffer, and 50 μl of 1×MSD Read buffer T was added (with surfactant, MSD cat#: R92TC-1). Plates were read on a MSD Spector Imager 6000.

In experiment [2] the target is T2, Cynomolgus Factor P (cynomolgus).
T2 construct: Purified from cynomolgus serum for SET/Biacore; Factor P of cynomolgus serum in the functional assays; also called Cyno Factor P; cyno FP
Put plainly: SET, solution equilibrium titration. The method, then:
as §1, §2

Experiment [3] deals with T1, Human Factor P. Put plainly: Biacore SPR, captured Factor P.
Experiment [4] has as its target T2, Cynomolgus Factor P. Description: Biacore SPR, captured Factor P.
Experiment [5] deals with T1, Human Factor P. Put plainly: cell-based or functional assay.
For experiment [6], the target named is T2, Cynomolgus Factor P. Put plainly: cell-based or functional assay.

T1 sequence (P27918 29-469 limits assumed): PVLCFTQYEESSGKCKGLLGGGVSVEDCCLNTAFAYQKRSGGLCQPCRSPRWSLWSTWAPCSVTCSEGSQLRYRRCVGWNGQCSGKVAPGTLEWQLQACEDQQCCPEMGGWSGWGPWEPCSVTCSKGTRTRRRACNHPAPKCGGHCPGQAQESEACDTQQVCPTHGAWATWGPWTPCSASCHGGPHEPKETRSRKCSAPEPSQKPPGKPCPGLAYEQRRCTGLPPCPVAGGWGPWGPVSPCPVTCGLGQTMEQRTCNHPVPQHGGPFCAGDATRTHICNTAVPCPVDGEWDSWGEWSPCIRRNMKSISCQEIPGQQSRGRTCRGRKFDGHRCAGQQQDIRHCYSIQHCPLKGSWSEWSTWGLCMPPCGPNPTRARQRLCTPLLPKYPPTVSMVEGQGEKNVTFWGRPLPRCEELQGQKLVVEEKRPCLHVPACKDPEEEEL

B1: NVS962-Q (Fab, V domains shown)
VH: EVQLVQSGAEVKKPGSSVKVSCKASGGTFQSYAISWVRQAPGQGLEWMGRIIPIFGTANYAQKFQGRVTITADESTSTAYMELSSLRSEDTAVYYCARHGGYSFDSWGQGTLVTVSS
VL: SYELTQPPSVSVAPGQTARISCSGDNLGSKYVDWYQQKPGQAPVLVIYSDNNRPSGIPERFSGSNSGNTATLTISGTQAEDEADYYCQTYTSGNNYLVFGGGTKLTVLG
notes: NVS962 with heavy chain N30 replaced with glutamine (deamidation site removed)
Turning to B1, the Kd in experiment [1] was 1.06 nM; in experiment [2], 0.93 nM; in experiment [3], 0.496 nM; in experiment [4], 0.475 nM. For the same molecule, the off-rate (koff) in experiment [3] stood at 0.000311 s⁻¹; in experiment [4], 0.000264 s⁻¹. In addition, the figures for the kon in experiment [3] and in experiment [4] were 627000 M⁻¹ s⁻¹ and 555000 M⁻¹ s⁻¹, respectively. Besides, the “Hemolytic assay IC50 (nM), 10% serum” value in experiment [5] was found to be 15.3 nM; in experiment [6] it was 14.7 nM. The “MAC Deposition, 20% Serum EC50” value in experiment [5] was 23.1 nM; in experiment [6] it was 20.9 nM. In addition, the “Zymosan-C3b IC50 (nM), 10% serum” value stood at 0.64 nM in experiment [5] and 1.62 nM in experiment [6].

B2: NVS965-Q (Fab, V domains shown)
VH: EVQLVQSGAEVKKPGSSVKVSCKASGGTFQSYAISWVRQAPGQGLEWMGRIIPIFGTANYAQKFQGRVTITADESTSTAYMELSSLRSEDTAVYYCARHGGYSFDSWGQGTLVTVSS
VL: SYVLTQPPSVSVAPGKTARISCSGDNLGSKYVDWYQQKPGQAPVLVIYSDNNRPSGIPERFSGSNSGNTATLTISGTQAMDEADYYCATYDSSPRTEVFGGGTKLTVLG
notes: NVS965 with heavy chain N30 replaced with glutamine
In the case of B2, the Kd came out at 0.301 nM in experiment [1], 0.201 nM in experiment [2], 0.138 nM in experiment [3] and 0.215 nM in experiment [4]. In addition, the koff amounted to 0.000366 s⁻¹ in experiment [3] and 0.000594 s⁻¹ in experiment [4]. Also, the kon was found to be 2.65e+06 M⁻¹ s⁻¹ in experiment [3] and 2.77e+06 M⁻¹ s⁻¹ in experiment [4]. In addition, the entries for the “Hemolytic assay IC50 (nM), 10% serum” value in experiment [5] and in experiment [6] were 9.71 nM and 14.7 nM, respectively. For the same molecule, the entries for the “MAC Deposition, 20% Serum EC50” value in experiment [5] and in experiment [6] were 15.4 nM and 9.39 nM, respectively. In addition, the “Zymosan-C3b IC50 (nM), 10% serum” value in experiment [5] stood at 1.64 nM; in experiment [6], 3.3 nM.

B3: NVS962-T (Fab, V domains shown)
VH: EVQLVQSGAEVKKPGSSVKVSCKASGGTFTSYAISWVRQAPGQGLEWMGRIIPIFGTANYAQKFQGRVTITADESTSTAYMELSSLRSEDTAVYYCARHGGYSFDSWGQGTLVTVSS
VL: SYELTQPPSVSVAPGQTARISCSGDNLGSKYVDWYQQKPGQAPVLVIYSDNNRPSGIPERFSGSNSGNTATLTISGTQAEDEADYYCQTYTSGNNYLVFGGGTKLTVLG
notes: NVS962 with heavy chain N30 replaced with threonine; also called NSV962-T
As for B3, the Kd was determined as 0.251 nM in experiment [1], 0.354 nM in experiment [2], 0.131 nM in experiment [3] and 0.175 nM in experiment [4]. In addition, the values for the koff in experiment [3] and in experiment [4] were 8.35e-05 s⁻¹ and 8.56e-05 s⁻¹, respectively. The kon is 639000 M⁻¹ s⁻¹ in experiment [3] and 488000 M⁻¹ s⁻¹ in experiment [4]. Further, the “Hemolytic assay IC50 (nM), 10% serum” value was found to be 9.31 nM in experiment [5] and 12.5 nM in experiment [6]. Also, the “MAC Deposition, 20% Serum EC50” value in experiment [5] worked out at 6.61 nM; in experiment [6] it was 5.42 nM. The figures for the “Zymosan-C3b IC50 (nM), 10% serum” value in experiment [5] and in experiment [6] were 1.75 nM and 3.1 nM, respectively.

B4: NVS962-S31A (Fab, V domains shown)
VH: EVQLVQSGAEVKKPGSSVKVSCKASGGTFNAYAISWVRQAPGQGLEWMGRIIPIFGTANYAQKFQGRVTITADESTSTAYMELSSLRSEDTAVYYCARHGGYSFDSWGQGTLVTVSS
VL: SYELTQPPSVSVAPGQTARISCSGDNLGSKYVDWYQQKPGQAPVLVIYSDNNRPSGIPERFSGSNSGNTATLTISGTQAEDEADYYCQTYTSGNNYLVFGGGTKLTVLG
notes: NVS962 with heavy chain serine 31 replaced with alanine
Take B4: the Kd in experiment [1] turned out to be 0.189 nM. Also, in experiment [2], the Kd amounted to 0.189 nM. In addition, in experiment [3], the affinity, expressed as Kd, was 0.225 nM; the koff was found to be 0.000113 s⁻¹; the kon is 504000 M⁻¹ s⁻¹. In experiment [4], this molecule gave a dissociation constant Kd of 0.234 nM, a koff of 8.7e-05 s⁻¹ and a kon of 372000 M⁻¹ s⁻¹. In experiment [5], the “Hemolytic assay IC50 (nM), 10% serum” value was determined as 12.8 nM; the “MAC Deposition, 20% Serum EC50” value was 9.96 nM; the “Zymosan-C3b IC50 (nM), 10% serum” value came out at 1.15 nM. Moreover, in experiment [6], the “Hemolytic assay IC50 (nM), 10% serum” value is 11.6 nM; the “MAC Deposition, 20% Serum EC50” value was determined as 7.86 nM; the “Zymosan-C3b IC50 (nM), 10% serum” value was determined as 3.12 nM.

B5: NVS965 (Fab, V domains shown)
VH: EVQLVQSGAEVKKPGSSVKVSCKASGGTFNSYAISWVRQAPGQGLEWMGRIIPIFGTANYAQKFQGRVTITADESTSTAYMELSSLRSEDTAVYYCARHGGYSFDSWGQGTLVTVSS
VL: SYVLTQPPSVSVAPGKTARISCSGDNLGSKYVDWYQQKPGQAPVLVIYSDNNRPSGIPERFSGSNSGNTATLTISGTQAMDEADYYCATYDSSPRTEVFGGGTKLTVLG
notes: Disulfide-bridged Fab; also called Fab NVS965
As for B5, in experiment [1], the Kd was found to be 0.036 nM. Also, the Kd in experiment [2] was 0.014 nM. In experiment [3], this molecule came in with a Kd of 0.016 nM, a koff of 4.1e-05 s⁻¹ and an on-rate (kon) of 2.65e+06 M⁻¹ s⁻¹. Besides, in experiment [4], the Kd was found to be 0.028 nM, the koff came out at 6.22e-05 s⁻¹ and the kon was 2.24e+06 M⁻¹ s⁻¹. In experiment [5], the “Hemolytic assay IC50 (nM), 10% serum” value amounted to 7.53 nM; the “Inhibition of C3a generation, 20% human serum” value came out at 31.3 nM; the “MAC Deposition, 20% Serum EC50” value turned out to be 17.3 nM; the “Zymosan-C3b IC50 (nM), 10% serum” value came out at 1.54 nM. Also, in experiment [6], the “Hemolytic assay IC50 (nM), 10% serum” value was 13.2 nM; the “MAC Deposition, 20% Serum EC50” value stood at 22.2 nM; the “Zymosan-C3b IC50 (nM), 10% serum” value is 6.36 nM.

B6: NVS962-S (Fab, V domains shown)
VH: EVQLVQSGAEVKKPGSSVKVSCKASGGTFSSYAISWVRQAPGQGLEWMGRIIPIFGTANYAQKFQGRVTITADESTSTAYMELSSLRSEDTAVYYCARHGGYSFDSWGQGTLVTVSS
VL: SYELTQPPSVSVAPGQTARISCSGDNLGSKYVDWYQQKPGQAPVLVIYSDNNRPSGIPERFSGSNSGNTATLTISGTQAEDEADYYCQTYTSGNNYLVFGGGTKLTVLG
notes: NVS962 with heavy chain N30 replaced with serine
With B6, the Kd in experiment [1] is 0.156 nM. Besides, the Kd in experiment [2] was 0.141 nM. In experiment [3], the dissociation constant Kd came to 0.161 nM, the koff came to 0.000117 s⁻¹ and the kon was determined as 730000 M⁻¹ s⁻¹. In experiment [4], this molecule showed a Kd of 0.127 nM, a koff of 6.66e-05 s⁻¹ and a kon of 524000 M⁻¹ s⁻¹. Further, in experiment [5], the “Hemolytic assay IC50 (nM), 10% serum” value was determined as 8.21 nM; the “MAC Deposition, 20% Serum EC50” value came out at 6.53 nM; the “Zymosan-C3b IC50 (nM), 10% serum” value amounted to 1.53 nM. Besides, in experiment [6], the “Hemolytic assay IC50 (nM), 10% serum” value was 12 nM; the “MAC Deposition, 20% Serum EC50” value stood at 15.6 nM; the “Zymosan-C3b IC50 (nM), 10% serum” value came out at 1.94 nM.

B7: NVS965-S (Fab, V domains shown)
VH: EVQLVQSGAEVKKPGSSVKVSCKASGGTFSSYAISWVRQAPGQGLEWMGRIIPIFGTANYAQKFQGRVTITADESTSTAYMELSSLRSEDTAVYYCARHGGYSFDSWGQGTLVTVSS
VL: SYVLTQPPSVSVAPGKTARISCSGDNLGSKYVDWYQQKPGQAPVLVIYSDNNRPSGIPERFSGSNSGNTATLTISGTQAMDEADYYCATYDSSPRTEVFGGGTKLTVLG
notes: NVS965 with heavy chain N30 replaced with serine
As for B7, the Kd in experiment [1] was 0.051 nM. The Kd in experiment [2] turned out to be 0.036 nM. In experiment [3], this molecule registered a Kd of 0.027 nM, a koff of 9.9e-05 s⁻¹ and a kon of 3.69e+06 M⁻¹ s⁻¹. In experiment [4], this molecule showed a Kd of 0.06 nM, a koff of 0.000163 s⁻¹ and a kon of 2.71e+06 M⁻¹ s⁻¹. For the same molecule, in experiment [5], the “Hemolytic assay IC50 (nM), 10% serum” value is 7.89 nM; the “MAC Deposition, 20% Serum EC50” value is 7.32 nM; the “Zymosan-C3b IC50 (nM), 10% serum” value was determined as 1.39 nM. Moreover, in experiment [6], the “Hemolytic assay IC50 (nM), 10% serum” value was determined as 12 nM; the “MAC Deposition, 20% Serum EC50” value came out at 8.12 nM; the “Zymosan-C3b IC50 (nM), 10% serum” value was 1.57 nM.

One may read the Kd as the free concentration of one partner at which half of the binding sites on the other are occupied at equilibrium, for simple one-to-one binding. As usually defined, the koff is the rate constant with which the complex falls apart. One may read the kon as the second-order rate constant of association.
